Experimental data published in US20260272979A1 (CHINEO MEDICAL TECHNOLOGY, published 2026).
Blank lines part the entries; values can stand above or below the molecule they belong to.

B1: Seq No. 2-RFc (PD-1 variant PD1_56# fused to rabbit IgG Fc) (Fc fusion)
chain: PGWFLDSPDRPWNPPTFSPALLVVTEGDNATFTCSFSNTSESFVLNWYRMSPSNQTDKLAAFPEDRSQPGQDCRFRVTQLPNGRDFHMSVVRARRNDSGTYLCGAISLSTPVWIKESLRAELRVTERRAEVPTAH
notes: Signal peptide 1-20 left out; also called variant 1; Mut1/56#; not shown: rabbit IgG Fc (RFc) of vector pcDNA3.4-RFc

Experiments:
[1] = target: Seq No. 1-RFc (wild-type PD-1 fused to rabbit IgG Fc) (human; rabbit) (UniProt Q15116); assay: SPR Biacore T200
[2] = target: Seq No. 2-RFc (PD-1 variant PD1_56# fused to rabbit IgG Fc) (human; rabbit) (UniProt Q15116); assay: SPR Biacore T200
[3] = target: Seq No. 3-RFc (PD-1 variant PD1_56#-2 fused to rabbit IgG Fc) (human; rabbit) (UniProt Q15116); assay: SPR Biacore T200
[4] = target: Seq No. 4-RFc (PD-1 variant PD1_56#-3 fused to rabbit IgG Fc) (human; rabbit) (UniProt Q15116); assay: SPR Biacore T200
[5] = target: Seq No. 5-RFc (PD-1 variant PD1_56#-15 fused to rabbit IgG Fc) (human; rabbit) (UniProt Q15116); assay: SPR Biacore T200
[6] = target: Seq No. 6-RFc (PD-1 variant PD1_56#-16 fused to rabbit IgG Fc) (human; rabbit) (UniProt Q15116); assay: SPR Biacore T200
[7] = target: Seq No. 7-RFc (PD-1 variant PD1_56#-108 fused to rabbit IgG Fc) (human; rabbit) (UniProt Q15116); assay: SPR Biacore T200
[8] = target: wild-type human PD-1 (hPD-1) on cells (human); assay: cell-based or functional assay
[9] = target: Seq No. 1-RFc (wild-type PD-1 fused to rabbit IgG Fc) (human; rabbit) (UniProt Q15116); assay: SPR Biacore T200; antibody stationary phase
[10] = target: Seq No. 2-RFc (PD-1 variant PD1_56# fused to rabbit IgG Fc) (human; rabbit) (UniProt Q15116); assay: SPR Biacore T200; antibody stationary phase
[11] = target: Seq No. 3-RFc (PD-1 variant PD1_56#-2 fused to rabbit IgG Fc) (human; rabbit) (UniProt Q15116); assay: SPR Biacore T200; antibody stationary phase
[12] = target: Seq No. 4-RFc (PD-1 variant PD1_56#-3 fused to rabbit IgG Fc) (human; rabbit) (UniProt Q15116); assay: SPR Biacore T200; antibody stationary phase
[13] = target: Seq No. 5-RFc (PD-1 variant PD1_56#-15 fused to rabbit IgG Fc) (human; rabbit) (UniProt Q15116); assay: SPR Biacore T200; antibody stationary phase
[14] = target: Seq No. 6-RFc (PD-1 variant PD1_56#-16 fused to rabbit IgG Fc) (human; rabbit) (UniProt Q15116); assay: SPR Biacore T200; antibody stationary phase
[15] = target: Seq No. 7-RFc (PD-1 variant PD1_56#-108 fused to rabbit IgG Fc) (human; rabbit) (UniProt Q15116); assay: SPR Biacore T200; antibody stationary phase
[16] = target: T1, PD-L1 fuse-expressed with an Fc derived from human IgG1 (human, UniProt Q9NZQ7 19-239); assay: SPR Biacore T200
T1 construct: Bought reagent; also called PD-L1-Fc; hPD-L1-Fc; not shown: Fc of human IgG1
T1 sequence (Q9NZQ7 19-239 limits assumed): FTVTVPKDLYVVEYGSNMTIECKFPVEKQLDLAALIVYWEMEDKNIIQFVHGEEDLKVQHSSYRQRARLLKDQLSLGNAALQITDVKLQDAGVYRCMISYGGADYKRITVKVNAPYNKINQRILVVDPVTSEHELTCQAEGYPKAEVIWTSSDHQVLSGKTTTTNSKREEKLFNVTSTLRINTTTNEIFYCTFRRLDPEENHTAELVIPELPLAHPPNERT

[17] = target: T2, PD-L2 fuse-expressed with an Fc derived from human IgG1 (human, UniProt Q9BQ51 20-219, limits assumed); assay: SPR Biacore T200
T2 construct: Bought reagent; also called hPD-L2-Fc; not shown: Fc of human IgG1
T2 sequence (looked up): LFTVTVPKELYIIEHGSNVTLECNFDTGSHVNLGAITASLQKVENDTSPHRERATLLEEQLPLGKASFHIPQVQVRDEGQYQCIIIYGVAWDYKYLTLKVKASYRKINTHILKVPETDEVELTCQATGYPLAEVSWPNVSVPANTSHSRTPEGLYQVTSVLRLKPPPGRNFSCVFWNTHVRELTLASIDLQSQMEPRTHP

[18] = target: T1, PD-L1 fuse-expressed with an Fc derived …; assay: SPR Biacore T200; PD1-RFc mobile phase
[19] = target: T2, PD-L2 fuse-expressed with an Fc derived …; assay: SPR Biacore T200; PD1-RFc mobile phase
[20] = target: B1; assay: SPR Biacore T200
[21] = target: T1, PD-L1 fuse-expressed with an Fc derived …; assay: flow cytometry, human T cells
[22] = target: T2, PD-L2 fuse-expressed with an Fc derived …; assay: flow cytometry, human T cells

Kd [20]: 0.395 nM
B7: Toripalimab (antibody, V domains shown)
VH: QGQLVQSGAEVKKPGASVKVSCKASGYTFTDYEMHWVRQAPIHGLEWIGVIESETGGTAYNQKFKGRVTITADKSTSTAYMELSSLRSEDTAVYYCAREGITTVATTYYWYFDVWGQGTTVTVSS
VL: DVVMTQSPLSLPVTLGQPASISCRSSQSIVHSNGNTYLEWYLQKPGQSPQLLIYKVSNRFSGVPDRFSGSGSGTDFTLKISRVEAEDVGVYYCFQGSHVPLTFGQGTKLEIKR

binding result [21]: binds | binding result [22]: binds
B8: PD-1 variant PD1_56#-16 on cells (receptor)
chain: PGWFLDSPDRPWNPPTFSPALLVVTEGDNATFTCSFSNTSESFVLNWYRMSPSNQTDKLAAFPEDFFTVSQDCRFRVTQLPNGRDFHMSVVRARRNDSGTYLCGAISLSTPVWIKESLRAELRVTERRAEVPTAHPSPSPRPAGQFQTLVVGVVGGLLGSLVLLVWVLAVIRSKRSRLLHSDYMNMTPRRPGPTRKHYQPYAPPRDFAAYRS
notes: On 293T cells and human T cells, from pLV2-PD1-CD28; signal peptide 1-20 left out; also called Mut5

binding result [21]: binds | binding result [22]: binds
B9: PD-1 variant PD1_56#-108 on cells (receptor)
chain: PGWFLDSPDRPWNPPTFSPALLVVTEGDNATFTCSFSNTSESFVLNWYRMSPSNQTDKLAAFPEDRINRSQDCRFRVTQLPNGRDFHMSVVRARRNDSGTYLCGAISLSTPVWIKESLRAELRVTERRAEVPTAHPSPSPRPAGQFQTLVVGVVGGLLGSLVLLVWVLAVIRSKRSRLLHSDYMNMTPRRPGPTRKHYQPYAPPRDFAAYRS
notes: On 293T cells and human T cells, from pLV2-PD1-CD28; signal peptide 1-20 left out; also called Mut6

Further lines, the molecule ahead of its results:

Molecule: Tilelizumab (antibody)
Kd [1]: 0.0135 nM | Kd [2]: 0.085 nM | Kd [3]: 1.78 nM | Kd [4]: 2.94 nM | Kd [5]: 0.567 nM | Kd [6]: 0.315 nM | Kd [7]: 0.0492 nM | IL-2 concentration (pg/ml) at 0.8 nM [8]: 432 pg/mL | IL-2 concentration (pg/ml) at 1.6 nM [8]: 440 pg/mL | IL-2 concentration (pg/ml) at 3.2 nM [8]: 440 pg/mL | IL-2 concentration (pg/ml) at 6.4 nM [8]: 56.1 pg/mL | IL-2 concentration (pg/ml) at 12.8 nM [8]: 36.9 pg/mL | IL-2 concentration (pg/ml) at 25.6 nM [8]: 47.7 pg/mL | IL-2 concentration (pg/ml) at 51.2 nM [8]: 80.5 pg/mL | IL-2 concentration (pg/ml) at 102.4 nM [8]: 126 pg/mL | koff [9]: 4.21e-05 s⁻¹ | kon [9]: 3.12e+06 M⁻¹ s⁻¹ | koff [10]: 0.000174 s⁻¹ | kon [10]: 2.05e+06 M⁻¹ s⁻¹ | koff [11]: 0.00105 s⁻¹ | kon [11]: 588000 M⁻¹ s⁻¹ | koff [12]: 0.00203 s⁻¹ | kon [12]: 691000 M⁻¹ s⁻¹ | koff [13]: 0.0003 s⁻¹ | kon [13]: 530000 M⁻¹ s⁻¹ | koff [14]: 0.000836 s⁻¹ | kon [14]: 2.66e+06 M⁻¹ s⁻¹ | koff [15]: 0.000109 s⁻¹ | kon [15]: 2.21e+06 M⁻¹ s⁻¹

Molecule: B1
Kd [16]: 0.457 nM | Kd [17]: 1.17 nM | koff [18]: 0.00129 s⁻¹ | kon [18]: 2.82e+06 M⁻¹ s⁻¹ | koff [19]: 0.00657 s⁻¹ | kon [19]: 5.6e+06 M⁻¹ s⁻¹

B2: Seq No. 6-RFc (PD-1 variant PD1_56#-16 fused to rabbit IgG Fc) (Fc fusion)
chain: PGWFLDSPDRPWNPPTFSPALLVVTEGDNATFTCSFSNTSESFVLNWYRMSPSNQTDKLAAFPEDFFTVSQDCRFRVTQLPNGRDFHMSVVRARRNDSGTYLCGAISLSTPVWIKESLRAELRVTERRAEVPTAH
notes: Signal peptide 1-20 left out; several higher bands in non-reducing SDS-PAGE; also called variant 5; PD1 variant 5 (56#-16); not shown: rabbit IgG Fc (RFc) of vector pcDNA3.4-RFc
Kd [16]: 0.657 nM | Kd [17]: 0.798 nM | koff [18]: 0.00153 s⁻¹ | kon [18]: 2.32e+06 M⁻¹ s⁻¹ | koff [19]: 0.00483 s⁻¹ | kon [19]: 6.05e+06 M⁻¹ s⁻¹

B3: Seq No. 3-RFc (PD-1 variant PD1_56#-2 fused to rabbit IgG Fc) (Fc fusion)
chain: PGWFLDSPDRPWNPPTFSPALLVVTEGDNATFTCSFSNTSESFVLNWYRMSPSNQTDKLAAFPFLFNLPGQDCRFRVTQLPNGRDFHMSVVRARRNDSGTYLCGAISLSTPVWIKESLRAELRVTERRAEVPTAH
notes: Signal peptide 1-20 left out; several higher bands in non-reducing SDS-PAGE; also called variant 2; Mut2/56#-2; not shown: rabbit IgG Fc (RFc) of vector pcDNA3.4-RFc
Kd [16]: 4.12 nM | Kd [17]: 0.00296 nM | koff [19]: 1.25e-05 s⁻¹ | kon [19]: 4.22e+06 M⁻¹ s⁻¹

B4: Seq No. 4-RFc (PD-1 variant PD1_56#-3 fused to rabbit IgG Fc) (Fc fusion)
chain: PGWFLDSPDRPWNPPTFSPALLVVTEGDNATFTCSFSNTSESFVLNWYRMSPSNQTDKLAAFPWMFCFPGQDCRFRVTQLPNGRDFHMSVVRARRNDSGTYLCGAISLSTPVWIKESLRAELRVTERRAEVPTAH
notes: Signal peptide 1-20 left out; several higher bands in non-reducing SDS-PAGE; also called variant 3; Mut3/56#-3; not shown: rabbit IgG Fc (RFc) of vector pcDNA3.4-RFc
Kd [16]: 39.6 nM | Kd [17]: 296 nM | koff [18]: 0.00266 s⁻¹ | kon [18]: 67400 M⁻¹ s⁻¹ | koff [19]: 0.0019 s⁻¹ | kon [19]: 6420 M⁻¹ s⁻¹

B5: Seq No. 5-RFc (PD-1 variant PD1_56#-15 fused to rabbit IgG Fc) (Fc fusion)
chain: PGWFLDSPDRPWNPPTFSPALLVVTEGDNATFTCSFSNTSESFVLNWYRMSPSNQTDKLAAFPEDFRNCTQDCRFRVTQLPNGRDFHMSVVRARRNDSGTYLCGAISLSTPVWIKESLRAELRVTERRAEVPTAH
notes: Signal peptide 1-20 left out; also called variant 4; Mut4/56#-15; not shown: rabbit IgG Fc (RFc) of vector pcDNA3.4-RFc
Kd [16]: 2.25 nM | Kd [17]: 4.53 nM | koff [18]: 0.00343 s⁻¹ | kon [18]: 1.52e+06 M⁻¹ s⁻¹ | koff [19]: 0.0096 s⁻¹ | kon [19]: 2.12e+06 M⁻¹ s⁻¹

B6: Seq No. 7-RFc (PD-1 variant PD1_56#-108 fused to rabbit IgG Fc) (Fc fusion)
chain: PGWFLDSPDRPWNPPTFSPALLVVTEGDNATFTCSFSNTSESFVLNWYRMSPSNQTDKLAAFPEDRINRSQDCRFRVTQLPNGRDFHMSVVRARRNDSGTYLCGAISLSTPVWIKESLRAELRVTERRAEVPTAH
notes: Signal peptide 1-20 left out; also called variant 6; not shown: rabbit IgG Fc (RFc) of vector pcDNA3.4-RFc
Kd [16]: 0.384 nM | Kd [17]: 0.336 nM | koff [18]: 0.000771 s⁻¹ | kon [18]: 2.01e+06 M⁻¹ s⁻¹ | koff [19]: 0.00356 s⁻¹ | kon [19]: 1.06e+07 M⁻¹ s⁻¹
